Key:
Human VEGF 165 [1] = target: T1, Human VEGF 165 (human, UniProt P15692 27-191); test: SPR (BIAcore-3000), VEGF165 immobilised on CM-5 chip, IgG in solution, 37 C, 1:1 Langmuir fit
T1 construct: mature; The 165-residue isoform without signal peptide; made in E. coli as in Simmons & Yansura 1996
Procedure: (§1) A CM-5 biosensor chip (Biacore, Inc.) was activated according to the manufacturer's instructions for amine coupling. […] Unreacted groups were blocked with 1 M ethanolamine. […] The kinetics of IgG variants binding to immobilized VEGF were measured with 2-fold serial dilutions beginning with 500 nM IgG in running buffer (PBS, 0.05% Tween, 0.01% sodium azide) at a flow rate of 20 μl/min (see FIG. 12). Binding measurements were carried out at 37° C. Regeneration of the chip after each cycle was with 20 mM HCl, followed by washing, an injection of 100 mM Tris pH 8.0, and additional washing.
(§2) The kinetic curves were fit to a 1:1 Langmuir binding model using BIAcore evaluation software version 3, which calculated association (kₒₙ) and dissociation (koff) rates. An apparent equilibrium constant, Kd, was calculated from koff/kₒₙ for each variant (Table 7).

Human VEGF 165 [2] = target: T1, Human VEGF 165; test: SPR (BIAcore-3000), apparent Kd from koff/kon, VEGF165 immobilised, 37 C
Procedure: as §1, §2

T1 sequence (P15692 other isoform, or with tags, fused parts or gaps): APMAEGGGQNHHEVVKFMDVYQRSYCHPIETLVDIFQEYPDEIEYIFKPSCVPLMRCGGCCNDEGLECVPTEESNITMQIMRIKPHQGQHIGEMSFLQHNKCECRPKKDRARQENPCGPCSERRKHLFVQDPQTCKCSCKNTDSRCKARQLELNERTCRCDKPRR

B1: anti-VEGF antibody VNERK, full-length, wild type hinge, produced in E. coli (antibody, V domains shown)
VH: EVQLVESGGGLVQPGGSLRLSCAASGYTFTNYGINWVRQAPGKGLEWVGWINTYTGEPTYAADFKRRFTFSLDTSKSTAYLQMNSLRAEDTAVYYCAKYPHYYVNERKSHWYFDVWGQGTLVTVSS
VL: DIQLTQSPSSLSASVGDRVTITCSASQDISNYLNWYQQKPGKAPKVLIYFTSSLHSGVPSRFSGSGSGTDFTLTISSLQPEDFATYYCQQYSTVPWTFGQGTKVEIKR
notes: Full-length aglycosylated human IgG1 made in E. coli; also called VNERK wild type; VNERK hinge wild type
Human VEGF 165 [1]
  koff: 5.9e-06 s⁻¹
  kon: 23000 M⁻¹ s⁻¹
Human VEGF 165 [2]
  Kd: 0.25 nM
